Test results taken from PMC2811157.

Target: GST-tagged Polo-box domain (PBD) of Plk1 (UniProt P53350)
Test: GST pull-down with anti-GFP immunoblot, band quantification
Conditions: mitotic lysates of U2OS cell lines; immobilized GST-Plk1-PBD; input levels set to 100%; parent: est. 56; read off a plot

Sequence of UniProt P53350 (P53350 326-603): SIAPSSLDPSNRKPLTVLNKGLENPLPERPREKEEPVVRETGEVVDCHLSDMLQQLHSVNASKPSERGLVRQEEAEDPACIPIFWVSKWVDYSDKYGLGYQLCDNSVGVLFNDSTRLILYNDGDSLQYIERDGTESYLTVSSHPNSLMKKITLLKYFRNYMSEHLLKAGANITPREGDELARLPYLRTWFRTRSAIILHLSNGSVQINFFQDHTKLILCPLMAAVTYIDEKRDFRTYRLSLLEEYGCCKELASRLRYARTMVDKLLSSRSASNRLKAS

| response | Substance |
| --- | --- |
| 10 % of input | GFP-tagged murine 53BP1, wild type (from UniProt P70399) S376A |
| 78 % of input | GFP-tagged murine 53BP1, wild type (from UniProt P70399) S1620A |
